Assay [1] deals with Recombinant soluble CD19 ectodomain (made in 293T cells) (UniProt P15391). Briefly: flow cytometry of transduced primary human T-cells stained with anti-CD3 and, for CAR, with recombinant CD19. Other quadrants: 74.7 upper left, 1.86 lower left, 0.16 lower right. The non-transduced control has 0.27 in the upper right.
Assay [2] addresses CD19 (partner in the 'Cellular affinity' column). Description: column 'Cellular affinity' of the drawn table; unit not given, the assay is not described in the filing and the format of the construct is not stated.
In assay [3] the target is Recombinant soluble CD19 ectodomain (made in 293T cells) (UniProt P15391). Description: flow cytometry of transduced primary human T-cells stained with anti-CD3 and, for CAR, with recombinant CD19. Other quadrants: 67.5 upper left, 1.43 lower left, 0.24 lower right. The non-transduced control has 0.27 in the upper right. In general terms: In flow cytometry, cells or beads pass a laser one at a time.

From patent US20180064758A1 come the findings set out here.

UniProt P15391, sequence (P15391 20-291 limits assumed): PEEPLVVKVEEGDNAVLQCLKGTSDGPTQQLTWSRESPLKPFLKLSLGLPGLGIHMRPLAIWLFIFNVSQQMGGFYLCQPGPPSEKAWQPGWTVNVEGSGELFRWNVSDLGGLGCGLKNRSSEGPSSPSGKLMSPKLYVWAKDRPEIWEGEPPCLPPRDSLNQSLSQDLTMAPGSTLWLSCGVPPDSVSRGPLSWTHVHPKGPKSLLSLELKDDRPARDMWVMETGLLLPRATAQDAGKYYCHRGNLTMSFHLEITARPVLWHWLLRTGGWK

For the substance “4G7 CAR in the Campana format (CD8 stalk spacer and transmembrane domain, 41BB endodomain, CD3-Zeta endodomain), on primary human T-cells”, in assay [1], the % of cells in the CD3+ CAR+ quadrant (upper right) was determined as 23.3%.

With “4G7 scFv-Fc (soluble recombinant scFv in scFv-Fc format, made in 293T cells) (Fc fusion)”, in assay [2], the Cellular affinity worked out at 1e-09.

Consider “Fmc63 scFv-Fc (soluble recombinant scFv in scFv-Fc format, made in 293T cells) (Fc fusion)”, for which the Cellular affinity in assay [2] was found to be 2e-10.

Turning to “fmc63 CAR in the Campana format (CD8 stalk spacer and transmembrane domain, 41BB endodomain, CD3-Zeta endodomain), on primary human T-cells”, in assay [3], the % of cells in the CD3+ CAR+ quadrant (upper right) came to 30.8%.
